Experimental data taken from US20250218531A1 (ABSCI, published 2025).
Substitutions are numbered along the chain they refer to. “And” between values parts separate entries of the source, which are not always exact repeats. Identical values can stand only once.

B1: Trastuzumab HCDR3 variant AKFERGYYSFDFG (Fab, V domains shown)
VH: EVQLVESGGGLVQPGGSLRLSCAASGFNIKDTYIHWVRQAPGKGLEWVARIYPTNGYTRYADSVKGRFTISADTSKNTAYLQMNSLRAEDTAVYYCAKFERGYYSFDFGWGQGTLVTVSS
VL: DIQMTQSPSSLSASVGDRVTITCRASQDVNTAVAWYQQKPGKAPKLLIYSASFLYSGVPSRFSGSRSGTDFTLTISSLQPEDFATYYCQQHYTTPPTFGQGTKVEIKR
B2: Trastuzumab HCDR3 variant ARSYFRFTGDFFY (Fab, V domains shown)
VH: EVQLVESGGGLVQPGGSLRLSCAASGFNIKDTYIHWVRQAPGKGLEWVARIYPTNGYTRYADSVKGRFTISADTSKNTAYLQMNSLRAEDTAVYYCARSYFRFTGDFFYWGQGTLVTVSS
VL: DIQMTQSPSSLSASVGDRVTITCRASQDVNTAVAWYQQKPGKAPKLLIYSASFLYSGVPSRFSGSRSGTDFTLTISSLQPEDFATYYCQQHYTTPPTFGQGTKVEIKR
B3: Trastuzumab HCDR3 variant ARYGDADFYAFDP (Fab, V domains shown)
VH: B2 VH with S99Y, Y100G, F101D, R102A, F103D, T104F, G105Y, D106A, F108D, Y109P
VL: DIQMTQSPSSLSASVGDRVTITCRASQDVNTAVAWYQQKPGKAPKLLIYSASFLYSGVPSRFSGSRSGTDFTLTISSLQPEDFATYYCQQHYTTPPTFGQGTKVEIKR
B4: Trastuzumab HCDR3 variant APWGTYRYGYFDH (Fab, V domains shown)
VH: B2 VH with R98P, S99W, Y100G, F101T, R102Y, F103R, T104Y, D106Y, F108D, Y109H
VL: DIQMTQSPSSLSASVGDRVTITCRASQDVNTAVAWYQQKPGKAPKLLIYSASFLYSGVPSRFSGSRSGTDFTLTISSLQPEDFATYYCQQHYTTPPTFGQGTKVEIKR
B5: Trastuzumab HCDR3 variant AQYGRGGYWYFDY (Fab, V domains shown)
VH: B1 VH with K98Q, F99Y, E100G, Y103G, S105W, F106Y, D107F, F108D, G109Y
VL: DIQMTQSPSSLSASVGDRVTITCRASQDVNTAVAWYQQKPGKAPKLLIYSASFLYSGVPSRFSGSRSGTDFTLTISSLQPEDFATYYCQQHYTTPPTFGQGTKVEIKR
B6: Trastuzumab HCDR3 variant ARWGTYTYGYFDY (Fab, V domains shown)
VH: B2 VH with S99W, Y100G, F101T, R102Y, F103T, T104Y, D106Y, F108D
VL: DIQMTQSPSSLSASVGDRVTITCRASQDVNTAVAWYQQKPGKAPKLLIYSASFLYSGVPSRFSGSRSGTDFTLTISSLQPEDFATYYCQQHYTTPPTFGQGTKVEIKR
B7: Trastuzumab HCDR3 variant ARWWTPANYPFLY (Fab, V domains shown)
VH: B2 VH with S99W, Y100W, F101T, R102P, F103A, T104N, G105Y, D106P, F108L
VL: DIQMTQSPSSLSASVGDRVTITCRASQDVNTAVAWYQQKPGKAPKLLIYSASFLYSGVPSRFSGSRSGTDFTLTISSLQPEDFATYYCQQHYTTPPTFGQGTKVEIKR
B8: Trastuzumab HCDR3 variant ARYFYDHYYYFDV (Fab, V domains shown)
VH: B2 VH with S99Y, Y100F, F101Y, R102D, F103H, T104Y, G105Y, D106Y, F108D, Y109V
VL: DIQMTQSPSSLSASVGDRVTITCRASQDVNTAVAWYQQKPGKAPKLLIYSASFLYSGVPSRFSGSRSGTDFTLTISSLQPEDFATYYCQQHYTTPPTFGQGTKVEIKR
B9: Trastuzumab HCDR3 variant AKYTRGFSYGFGY (Fab, V domains shown)
VH: B1 VH with F99Y, E100T, Y103F, Y104S, S105Y, F106G, D107F, F108G, G109Y
VL: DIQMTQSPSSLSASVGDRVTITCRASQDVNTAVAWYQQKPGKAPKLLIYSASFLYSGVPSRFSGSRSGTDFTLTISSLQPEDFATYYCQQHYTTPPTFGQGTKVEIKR
B10: Trastuzumab HCDR3 variant ARWEQASVGSFGY (Fab, V domains shown)
VH: B2 VH with S99W, Y100E, F101Q, R102A, F103S, T104V, D106S, F108G
VL: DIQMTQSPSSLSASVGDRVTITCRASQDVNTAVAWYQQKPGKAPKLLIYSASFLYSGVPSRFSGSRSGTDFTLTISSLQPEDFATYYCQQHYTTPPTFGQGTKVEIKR
B11: Trastuzumab HCDR3 variant APWWSGWYYFFDT (Fab, V domains shown)
VH: B1 VH with K98P, F99W, E100W, R101S, Y103W, S105Y, D107F, F108D, G109T
VL: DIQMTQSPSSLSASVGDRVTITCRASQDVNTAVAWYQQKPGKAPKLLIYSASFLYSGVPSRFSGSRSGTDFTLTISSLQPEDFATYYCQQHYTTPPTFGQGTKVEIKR
B12: Trastuzumab HCDR3 variant ARYDYYGYYYFDY (Fab, V domains shown)
VH: B2 VH with S99Y, Y100D, F101Y, R102Y, F103G, T104Y, G105Y, D106Y, F108D
VL: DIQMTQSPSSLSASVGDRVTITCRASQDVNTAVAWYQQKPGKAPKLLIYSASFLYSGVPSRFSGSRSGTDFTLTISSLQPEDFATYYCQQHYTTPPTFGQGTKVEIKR
B13: Trastuzumab HCDR3 variant ARFGGAGGYYFDY (Fab, V domains shown)
VH: B2 VH with S99F, Y100G, F101G, R102A, F103G, T104G, G105Y, D106Y, F108D
VL: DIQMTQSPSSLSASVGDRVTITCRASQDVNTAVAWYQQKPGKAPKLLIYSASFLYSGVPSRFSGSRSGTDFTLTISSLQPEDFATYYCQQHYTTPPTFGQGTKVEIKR
B14: Trastuzumab HCDR3 variant ARDVYVGSPVFDY (Fab, V domains shown)
VH: B2 VH with S99D, Y100V, F101Y, R102V, F103G, T104S, G105P, D106V, F108D
VL: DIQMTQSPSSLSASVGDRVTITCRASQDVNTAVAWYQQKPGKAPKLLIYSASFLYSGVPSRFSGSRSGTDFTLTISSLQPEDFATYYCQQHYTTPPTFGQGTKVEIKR
B15: Trastuzumab HCDR3 variant ARGGYGYYTWFDY (Fab, V domains shown)
VH: B1 VH with K98R, F99G, E100G, R101Y, S105T, F106W, D107F, F108D, G109Y
VL: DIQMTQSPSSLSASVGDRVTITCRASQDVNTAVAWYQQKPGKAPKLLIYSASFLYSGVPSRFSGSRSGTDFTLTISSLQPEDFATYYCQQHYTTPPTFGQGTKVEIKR
B16: Trastuzumab HCDR3 variant ANVGSSLGIAALD (Fab, V domains shown)
VH: EVQLVESGGGLVQPGGSLRLSCAASGFNIKDTYIHWVRQAPGKGLEWVARIYPTNGYTRYADSVKGRFTISADTSKNTAYLQMNSLRAEDTAVYYCANVGSSLGIAALDWGQGTLVTVSS
VL: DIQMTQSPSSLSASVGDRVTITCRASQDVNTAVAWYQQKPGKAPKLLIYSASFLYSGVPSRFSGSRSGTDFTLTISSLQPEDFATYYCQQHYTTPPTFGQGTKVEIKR
B17: Trastuzumab HCDR3 variant ARFSGYGAYDYAY (Fab, V domains shown)
VH: B2 VH with S99F, Y100S, F101G, R102Y, F103G, T104A, G105Y, F107Y, F108A
VL: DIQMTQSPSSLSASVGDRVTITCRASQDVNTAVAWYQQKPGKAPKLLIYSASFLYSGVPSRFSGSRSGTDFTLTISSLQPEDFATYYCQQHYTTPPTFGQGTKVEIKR
B18: Trastuzumab HCDR3 variant ARWRYGGAYQFAL (Fab, V domains shown)
VH: B2 VH with S99W, Y100R, F101Y, R102G, F103G, T104A, G105Y, D106Q, F108A, Y109L
VL: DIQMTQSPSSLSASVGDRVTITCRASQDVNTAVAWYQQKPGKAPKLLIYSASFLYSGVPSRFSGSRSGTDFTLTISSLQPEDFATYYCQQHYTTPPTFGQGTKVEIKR
B19: Trastuzumab HCDR3 variant ARWGSYGYYYFDY (Fab, V domains shown)
VH: B2 VH with S99W, Y100G, F101S, R102Y, F103G, T104Y, G105Y, D106Y, F108D
VL: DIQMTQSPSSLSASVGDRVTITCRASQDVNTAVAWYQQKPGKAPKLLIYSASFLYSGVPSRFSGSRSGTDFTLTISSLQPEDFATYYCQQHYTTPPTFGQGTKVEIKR
B20: Trastuzumab HCDR3 variant ARWGSEAFYWFDY (Fab, V domains shown)
VH: B2 VH with S99W, Y100G, F101S, R102E, F103A, T104F, G105Y, D106W, F108D
VL: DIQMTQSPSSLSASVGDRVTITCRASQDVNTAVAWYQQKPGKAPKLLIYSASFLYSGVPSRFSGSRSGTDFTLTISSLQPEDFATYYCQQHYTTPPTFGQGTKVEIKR
B21: Trastuzumab HCDR3 variant ARDGYPFYSGMDY (Fab, V domains shown)
VH: B2 VH with S99D, Y100G, F101Y, R102P, T104Y, G105S, D106G, F107M, F108D
VL: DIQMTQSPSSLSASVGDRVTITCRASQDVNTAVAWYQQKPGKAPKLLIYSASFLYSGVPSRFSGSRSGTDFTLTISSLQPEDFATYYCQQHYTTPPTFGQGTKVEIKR
B22: Trastuzumab HCDR3 variant ARNSGTGIWAFAY (Fab, V domains shown)
VH: B2 VH with S99N, Y100S, F101G, R102T, F103G, T104I, G105W, D106A, F108A
VL: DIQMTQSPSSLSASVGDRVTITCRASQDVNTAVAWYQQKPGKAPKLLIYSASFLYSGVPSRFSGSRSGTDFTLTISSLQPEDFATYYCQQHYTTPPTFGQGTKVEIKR
B23: Trastuzumab HCDR3 variant ARNYYYGAYYFDY (Fab, V domains shown)
VH: B2 VH with S99N, F101Y, R102Y, F103G, T104A, G105Y, D106Y, F108D
VL: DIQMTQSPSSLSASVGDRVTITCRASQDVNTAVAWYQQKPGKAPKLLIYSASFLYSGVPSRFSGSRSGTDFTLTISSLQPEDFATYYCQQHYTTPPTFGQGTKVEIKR
B24: Trastuzumab HCDR3 variant ARPSYDVGGDMLF (Fab, V domains shown)
VH: B2 VH with S99P, Y100S, F101Y, R102D, F103V, T104G, F107M, F108L, Y109F
VL: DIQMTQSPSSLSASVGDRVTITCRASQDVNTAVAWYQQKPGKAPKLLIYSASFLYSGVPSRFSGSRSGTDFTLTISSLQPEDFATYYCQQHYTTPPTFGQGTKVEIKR
B25: Trastuzumab HCDR3 variant AKFHWGEDWLSDN (Fab, V domains shown)
VH: B1 VH with E100H, R101W, Y103E, Y104D, S105W, F106L, D107S, F108D, G109N
VL: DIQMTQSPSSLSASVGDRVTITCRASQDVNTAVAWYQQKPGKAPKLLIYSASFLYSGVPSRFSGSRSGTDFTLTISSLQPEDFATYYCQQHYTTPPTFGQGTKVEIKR
B26: Trastuzumab HCDR3 variant ARWVSGARYYMDV (Fab, V domains shown)
VH: EVQLVESGGGLVQPGGSLRLSCAASGFNIKDTYIHWVRQAPGKGLEWVARIYPTNGYTRYADSVKGRFTISADTSKNTAYLQMNSLRAEDTAVYYCARWVSGARYYMDVWGQGTLVTVSS
VL: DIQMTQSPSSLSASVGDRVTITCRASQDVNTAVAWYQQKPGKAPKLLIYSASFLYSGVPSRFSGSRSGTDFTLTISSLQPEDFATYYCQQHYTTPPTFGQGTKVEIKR

Target: human epidermal growth factor receptor 2 (HER2) extracellular domain (human, UniProt P04626 23-629)
Test: SPR

Row | Binder | Kd | log(KD (M))
1 | B1 | 38.3 nM | -7.42 log(M)
2 | B2 | 135 nM | -6.87 log(M)
3 | B3 | 35.8 nM | -7.45 log(M)
4 | B4 | 67.6 nM | -7.17 log(M)
5 | B5 | 188 nM | -6.72 log(M)
6 | B6 | 88.1 nM | -7.05 log(M)
7 | B7 | 133 nM | -6.88 log(M)
8 | B8 | 29.7 nM | -7.53 log(M)
9 | B9 | 37.8 nM | -7.42 log(M)
10 | B10 | 226 nM | -6.65 log(M)
11 | B11 | 33 nM | -7.48 log(M)
12 | B12 | 99 nM | -7 log(M)
13 | B13 | 35 nM | -7.46 log(M)
14 | B14 | 278 nM | -6.56 log(M)
15 | B15 | 42.1 nM | -7.38 log(M)
16 | B16 | 36.7 nM | -7.44 log(M)
17 | B17 | 125 nM | -6.9 log(M)
18 | B18 | 231 nM | -6.64 log(M)
19 | B19 | 30.9 nM | -7.51 log(M)
20 | B20 | 32.8 nM | -7.48 log(M)
21 | B21 | 154 nM | -6.81 log(M)
22 | B22 | 65 nM | -7.19 log(M)
23 | B23 | 45.5 nM | -7.34 log(M)
24 | B24 | 83.3 nM and 83.2 nM | -7.08 log(M)
25 | B25 | 59.1 nM | -7.23 log(M)
26 | B26 | 33.8 nM | -7.47 log(M)
